Laboratory results from EP4624492A1 (Shanghai Hongcheng Biopharmaceutical Co., Ltd., dated 2025).
Like-named read-outs stand apart in the source and are kept apart here.

Assays:
human CCR8 [1] = target: T1, human CCR8 (human, UniProt P51685 1-355); assay: cell-based or functional assay
human CCR8 [2] = target: T1, human CCR8; assay: flow cytometry on CHOK1-hCCR8 cells
human CCR8 [3] = target: T1, human CCR8; assay: cell-based or functional assay; remark: listed apart in the source
human CCR8 [4] = target: T1, human CCR8; assay: cell-based or functional assay; remark: listed apart in the source
human CCR8 [5] = target: T1, human CCR8; assay: flow cytometry, competition with 10 nM AF647-human CCL1 on 293F-hCCR8 cells
human CCR8 [6] = target: T1, human CCR8; assay: cell-based or functional assay; remark: listed apart in the source
human CCR8 [7] = target: T1, human CCR8; assay: cell-based or functional assay; remark: listed apart in the source
human CCR8 [8] = target: T1, human CCR8; assay: flow cytometry on 293F-hCCR8 cells
cynomolgus CCR8 = target: T2, cynomolgus CCR8 (cynomolgus monkey); assay: flow cytometry on 293T-cynoCCR8 cells
T2 construct: whole, on cells; the constructs of the cell lines are not tied to it word for word; also called cynoCCR8

human CCR8 [9] = target: T1, human CCR8; assay: flow cytometry on HuT78 cells (endogenous CCR8)
human CCR8 [10] = target: T1, human CCR8; assay: cell-based or functional assay; remark: listed apart in the source

T1 sequence (P51685 whole entry): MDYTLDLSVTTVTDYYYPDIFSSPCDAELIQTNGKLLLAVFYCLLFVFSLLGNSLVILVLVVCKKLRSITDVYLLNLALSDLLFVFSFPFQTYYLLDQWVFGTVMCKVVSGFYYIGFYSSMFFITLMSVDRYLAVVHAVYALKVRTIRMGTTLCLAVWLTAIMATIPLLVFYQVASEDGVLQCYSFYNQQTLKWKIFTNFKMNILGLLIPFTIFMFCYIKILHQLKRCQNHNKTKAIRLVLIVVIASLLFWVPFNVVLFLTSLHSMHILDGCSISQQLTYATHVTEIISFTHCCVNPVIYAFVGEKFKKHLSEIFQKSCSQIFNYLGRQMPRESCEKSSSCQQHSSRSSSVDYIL

B1: 563E10E12_hzH1L0_hIgG1 (antibody)
heavy: not shown
light: DIVMTQSPLSLPVTPGEPASISCRSSKSLLHSNGITYLFWYLQKPGQSPQLLIYQMSNLASGVPDRFSGSGSGTDFTLKISRVEAEDVGVYYCAQSLELPLTFGGGTKVEIKRTVAAPSVFIFPPSDEQLKSGTASVVCLLNNFYPREAKVQWKVDNALQSGNSQESVTEQDSKDSTYSLSSTLTLSKADYEKHKVYACEVTHQGLSSPVTKSFNRGEC
notes: Humanized, hIgG1/K
EC50 of activation of Jurkat-human FcγRIIIa(158V)-NFAT with 293F-hCCR8 target cells (human CCR8 [1]): 0.0279 µg/mL
EC50 (human CCR8 [2]): 0.0376 µg/mL
EC50 of activation of Jurkat-human FcγRIIIa(158V)-NFAT with HuT78 target cells (human CCR8 [3]): 0.0409 µg/mL
EC50 of activation of Jurkat-human FcγRIIIa(158V)-NFAT with CHOK1-hCCR8 target cells (human CCR8 [4]): 0.0299 µg/mL
IC50 (human CCR8 [5]): 0.0852 µg/mL
EC50 of ADCC effect (lysis%) by human PBMCs on CHOK1-hCCR8 cells (human CCR8 [6]): 0.00471 µg/mL
EC50 of activation of Jurkat-human FcγRIIIa(158V)-NFAT with 293F-hCCR8 target cells (human CCR8 [7]): 0.0135 µg/mL
EC50 (human CCR8 [8]): 0.103 µg/mL
EC50 (cynomolgus CCR8): 0.0227 µg/mL
EC50 (human CCR8 [9]): 0.054 µg/mL
IC50 of blockade of CCL1-induced β-arrestin recruitment (human CCR8 [10]): 1.46 µg/mL
